Paper PMC9292107

Molecular target: caveolin-3 (Cav3) (mouse (endogenous in cardiomyocytes)) (UniProt P51637)
Experiment: co-IP; endogenous proteins in extracts of mouse cardiomyocytes / heart (WT; for actin-Cav3 also SM22α KO); IgG as negative control; Western blot

UniProt P51637, sequence (P51637 whole entry): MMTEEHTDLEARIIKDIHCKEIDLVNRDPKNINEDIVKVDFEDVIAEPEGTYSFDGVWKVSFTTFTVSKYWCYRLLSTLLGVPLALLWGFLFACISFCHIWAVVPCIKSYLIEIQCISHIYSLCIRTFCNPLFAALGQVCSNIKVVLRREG

Substance: α-actin (from UniProt P68033 1-377) (natural protein)
- reduction of the co-precipitate in SM22α KO against WT cardiomyocytes: 34%
